Laboratory results taken from patent publication US8598312B2, “Inhibitors of antigen presentation by MHC class II molecules” (Provid Pharmaceuticals, Inc., priority 2003, dated 2013).
Where a SMILES comes first, the peptide text is derived from it. Where no end group is shown, it is not given here. [ ]: non-standard residue; d: D form. Ala(indol-4-yl) = N[C@@H](Cc1cccc2[nH]ccc12)C(=O)O; Gly(cPent) = N[C@H](C(=O)O)C1CCCC1; Tic = O=C(O)[C@@H]1Cc2ccccc2CN1; Chg = N[C@H](C(=O)O)C1CCCCC1; Pip = O=C(O)[C@@H]1CCCCN1; Idg = not defined here

What was measured:
T cell proliferation = conditions: cited from earlier work
[1] = in vivo; cited from earlier work
DR13 (HLA-DR molecules) = assay: HLA II binding assay, DR13; design: species or system human; conditions: read-out: Inhibition of peptide binding IC50 DR13
DRB1*1501 molecules = DRB1*1501 molecules (Homo sapiens, UniProt P01903+P01911); conditions: DR2 haplotype; cited from earlier work
DRB5*0101 molecules = DRB5*0101 molecules (Homo sapiens, UniProt P01903+Q30154); conditions: DR2 haplotype; cited from earlier work
[2] = molecular target: MHC class II HLA-DR2 (DRA*0101/DRB1*1501) (human); assay: competition binding assay, purified HLA-DR, biotinylated reference peptide SEQ ID NO 107 as competitor, L243 capture
[3] = molecular target: T1, MHC class II HLA-DR2 (DRA*0101/DRB1*1501) (human, UniProt P01903 26-254; P01911 30-266, limits assumed); assay: as above
T1 construct: mature; Detergent-solubilised native molecule purified from cells; also called DR2b

DR2a = molecular target: T2, DR2a (human, UniProt P01903 26-216, limits assumed); assay: competition binding assay, purified HLA-DR, biotinylated reference peptide (not named), L243 capture
T2 construct: mature

| Molecule | IC50 [3] | IC50 (DR2a) | also measured |
| --- | --- | --- | --- |
| a(Cha)AAAKTAAAAa-NH2 |  |  | suppression of T cell proliferation in response to protein antigens (T cell proliferation): did not supress T cell proliferation; activity in animal models of autoimmune disease [1]: did not show activity |
| CC(=O)N[C@H](C(=O)N[C@@H](CCCNC(=N)N)C(=O)N1Cc2ccccc2C[C@H]1C(=O)N[C@@H](Cc1ccccc1)C(=O)N1CCCC[C@H]1C(N)=O)C1CCCC1 [Ac(Cpg)R(Tic)F(hPro), Ac(Cpg)R(Tic)F(homo Pro)] (Ac-[Gly(cPent)]R[Tic]F[Pip]-NH2; N-terminus and C-terminus assumed) |  |  | IC50 (DR13 (HLA-DR molecules)): > 100000 nM |
| MBP (84-102): immunodominant myelin basic protein (84-102) peptide (DPGSRPHLIRLFSRDAPGR; Myelin basic protein; UniProt P02686 84-102, looked up, fragment) |  |  | binding affinity to DRB1*1501 molecules (DRB1*1501 molecules): high affinity; binding affinity to DRB5*0101 molecules (DRB5*0101 molecules): high affinity |
| Ac(Cpg)R(Tic)F(hPro) (peptide) |  |  | IC50 [2]: 75 nM |
| Ac-[Gly(cPent)]RFFKNI (not fully specified; printed as Ac(Cpg)RFFKNI, also called Entry 25) [Ac(Cpg)RFFKNI] | 25 nM | 630 nM |  |
| Ac-[Chg]RF[Ala(indol-4-yl)]KNI (not fully specified; printed as Ac(Chg)RF(4′-IndolylAla)KNI, also called Entry 79) [Ac(Chg)RF(4′-IndolylAla)KNI] | 6 nM | 3580 nM |  |
| Ac-[Idg]RFFKNI (not fully specified; printed as Ac(Idg)RFFKNI; reading uncertain, also called Entry 64) [Ac(Idg)RFFKNI] | 90 nM | 17 nM |  |
| Ac-VHFFKNI (also called Entry 2) [AcVHFFKNI] | 450 nM |  |  |
| Ac-V[Chg]RFFK (not fully specified; printed as AcV(Chg)RFFK, also called Entry 85) [AcV(Chg)RFFK] | 3 nM | 685 nM |  |
